Experimental data reported in the supplement of paper PMC10567573.

B1: TMEM175 (parent)
chain: ALLHQAETLQPSVWFGGREHVLMF

Variants of: B1
Test: protein stability index of a GFP-peptide fusion (GPS, HEK-293T) (PSI 1-6); higher = more stable
Conditions: c terminus: a fixed tail appended
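Also: lentivirally expressed fusions sorted by FACS into six bins by GFP to DsRed ratio, PSI derived from sequencing read proportions per bin multiplied by bin number.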

Protein stability index: each site, then its substitutions
L9: E 1.16; N 1.97; C 3.64; Q 3.27; R 2.19; S 1.36; G 2.85; W 1.7; F 2.49; P 2.11; A 2.42
Q10: P 2.16; M 1.96; R 2.36; W 1.51; I 2.49; V 1.06; H 1.99; N 3.13; D 2.35; S 2.2
A6: S 1.68; Q 1.87; K 1.68; C 3.75; D 2.55; P 2.43; F 3.21; E 1.54; T 1.83; H 2.17; Y 2.91
Q5: H 2.37; V 3.06; D 2.03; F 1.43; R 2.33; T 2.94; P 2.78; L 3.8; C 1.99; E 1.07; N 2.68; S 2.72; M 3.42
G17: A 3.03; T 2.68; W 1.67; E 1; H 2.45; N 2.51; V 2.62; K 1.66; D 1.27; I 2.68; P 1.05; R 3.53; Q 1.4
F15: C 2.5; D 2.29; T 1.85; R 2.02; A 1.88; N 1.65; E 1.57; M 1.82; H 2.12; G 2.22; S 1.57; Q 1.27; Y 2.4
T8: K 3.25; V 1.01; N 1.63; F 3.68; R 1.26; D 1.83; Y 2.91; E 2.03; C 2.94; L 4.17; W 1.69; S 1.65; H 2.95
H4: E 1.56; P 1.41; D 1.89; W 3.3; K 1.52; S 1.99; Q 1.73; N 2.84; C 3.01; F 3.14; G 1.75; Y 2.17
S12: H 1.15; P 4.3; I 3.85; M 1.75; W 2.82; E 2.31; V 3.21; T 2.65; N 1; Q 1.82
V13: S 2.73; W 2.36; Y 1.69; N 2.28; R 2.02; A 3.02; I 2.25; E 1.86; H 2.22; L 2.59; M 2.46; P 2.16; Q 3.1; C 3.13; D 2.16
G16: T 1.47; P 1.14; N 2.41; D 2.04; C 2.98; K 2.17; Y 3.05; H 2.1; M 2.69; S 2.06; L 2.28
W14: L 1.73; H 2.31; G 2.64; I 2.22; V 1.91; M 2.08; Q 2.24; F 2.48; Y 2.11; E 1.38; N 1.3; S 1.55; R 2.65; A 1.66; D 1.74
P11: A 1.78; L 1.82; G 1.24; Q 1.38; K 2.59; H 1.77; D 2.79; R 4.75
E7: M 3.19; N 1.88; K 3.58; D 1; S 2.22; P 1.96; W 3.4; Y 1.78; H 3; G 3.88; Q 2.71; F 2.64
